Laboratory results as given in the supplement of paper PMC9112550, “Optimization of the antimicrobial peptide Bac7 by deep mutational scanning” (BMC Biology, 2022).

System: Escherichia coli TOP10
Test: shrunken log2 fold change of peptide-encoding DNA abundance (4.5 h post-induction vs induction); higher = less antimicrobial activity (less host growth inhibition)
Settings: time post-induction: 4.5 h; library: site-saturation at positions 5, 18, 19, 20
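Note: peptides expressed intracellularly from a pBAD plasmid library in pooled LB shake-flask culture, induced with 0.3% L-arabinose, DNA abundance read by NGS, three biological replicates, DESeq2 with apeglm shrinkage.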

## RRIRARPPRLPRPRPRPEKNPRP
  shrunken log2 fold change: 0.538

## RRIRTRPPRLPRPRPRPEMNPRP
  shrunken log2 fold change: 0.00876

## RRIRKRPPRLPRPRPRPKYLPRP
  shrunken log2 fold change: -0.0198

## RRIRARPPRLPRPRPRPQAVPRP
  shrunken log2 fold change: 0.0772

## RRIRIRPPRLPRPRPRPDLTPRP
  shrunken log2 fold change: -0.00701

## RRIRVRPPRLPRPRPRPVFCPRP
  shrunken log2 fold change: 0.142

## RRIRRRPPRLPRPRPRPNYTPRP
  shrunken log2 fold change: -0.44

## RRIRRRPPRLPRPRPRPQKYPRP
  shrunken log2 fold change: -0.696

## RRIRRRPPRLPRPRPRPYCRPRP
  shrunken log2 fold change: -0.503

## RRIRSRPPRLPRPRPRPWIWPRP
  shrunken log2 fold change: 0.341

## RRIRIRPPRLPRPRPRPYNYPRP
  shrunken log2 fold change: -0.65

## RRIRHRPPRLPRPRPRPIYFPRP
  shrunken log2 fold change: -0.123

## RRIRKRPPRLPRPRPRPPRQPRP
  shrunken log2 fold change: 0.82

## RRIRGRPPRLPRPRPRPGQWPRP
  shrunken log2 fold change: 0.356

## RRIRTRPPRLPRPRPRPPIPPRP
  shrunken log2 fold change: 0.128

## RRIRVRPPRLPRPRPRPSLSPRP
  shrunken log2 fold change: -0.303

## RRIRERPPRLPRPRPRPTMIPRP
  shrunken log2 fold change: -0.597

## RRIRVRPPRLPRPRPRPSRVPRP
  shrunken log2 fold change: 0.0356

## RRIRERPPRLPRPRPRPQFKPRP
  shrunken log2 fold change: -0.444

## RRIRQRPPRLPRPRPRPTNIPRP
  shrunken log2 fold change: -0.122

## RRIRCRPPRLPRPRPRPQQCPRP
  shrunken log2 fold change: -0.219

## RRIRKRPPRLPRPRPRPAPIPRP
  shrunken log2 fold change: 0.716

## RRIRQRPPRLPRPRPRPNQSPRP
  shrunken log2 fold change: -0.0722

## RRIRMRPPRLPRPRPRPMRNPRP
  shrunken log2 fold change: 1.62

## RRIRVRPPRLPRPRPRPIQCPRP
  shrunken log2 fold change: 0.078

## RRIRKRPPRLPRPRPRPCQEPRP
  shrunken log2 fold change: -0.0342

## RRIRERPPRLPRPRPRPVAQPRP
  shrunken log2 fold change: -0.201

## RRIRIRPPRLPRPRPRPVTCPRP
  shrunken log2 fold change: -0.255

## RRIRARPPRLPRPRPRPCRNPRP
  shrunken log2 fold change: -0.38

## RRIRNRPPRLPRPRPRPPAIPRP
  shrunken log2 fold change: 0.276

## RRIRFRPPRLPRPRPRPYISPRP
  shrunken log2 fold change: -0.295

## RRIRWRPPRLPRPRPRPAMLPRP
  shrunken log2 fold change: 0.365

## RRIRHRPPRLPRPRPRPGEDPRP
  shrunken log2 fold change: 0.0147

## RRIRMRPPRLPRPRPRPIFHPRP
  shrunken log2 fold change: -0.00123

## RRIRVRPPRLPRPRPRPHFAPRP
  shrunken log2 fold change: 0.0941

## RRIRFRPPRLPRPRPRPTGGPRP
  shrunken log2 fold change: 0.259

## RRIRQRPPRLPRPRPRPEEGPRP
  shrunken log2 fold change: -0.0102

## RRIRCRPPRLPRPRPRPEVGPRP
  shrunken log2 fold change: 0.555

## RRIRQRPPRLPRPRPRPEDQPRP
  shrunken log2 fold change: 0.0199

## RRIRGRPPRLPRPRPRPLNYPRP
  shrunken log2 fold change: 0.131

## RRIRWRPPRLPRPRPRPKYRPRP
  shrunken log2 fold change: 0.00658

## RRIRYRPPRLPRPRPRPHWHPRP
  shrunken log2 fold change: -0.912

## RRIRKRPPRLPRPRPRPMMSPRP
  shrunken log2 fold change: -0.00973

## RRIRQRPPRLPRPRPRPMYKPRP
  shrunken log2 fold change: -0.0194

## RRIRQRPPRLPRPRPRPTCIPRP
  shrunken log2 fold change: -0.0736

## RRIRDRPPRLPRPRPRPYDNPRP
  shrunken log2 fold change: -0.307

## RRIRTRPPRLPRPRPRPPKMPRP
  shrunken log2 fold change: 0.18

## RRIRNRPPRLPRPRPRPEMKPRP
  shrunken log2 fold change: -0.188

## RRIRDRPPRLPRPRPRPMISPRP
  shrunken log2 fold change: 0.185

## RRIRHRPPRLPRPRPRPKMEPRP
  shrunken log2 fold change: -0.00674

## RRIRMRPPRLPRPRPRPTYHPRP
  shrunken log2 fold change: -0.242

## RRIRLRPPRLPRPRPRPVHYPRP
  shrunken log2 fold change: -0.498

## RRIRSRPPRLPRPRPRPDSHPRP
  shrunken log2 fold change: -0.36

## RRIRYRPPRLPRPRPRPRINPRP
  shrunken log2 fold change: -0.196

## RRIRSRPPRLPRPRPRPVCNPRP
  shrunken log2 fold change: 0.413

## RRIRFRPPRLPRPRPRPPDTPRP
  shrunken log2 fold change: 0.254

## RRIRYRPPRLPRPRPRPNLGPRP
  shrunken log2 fold change: -0.0146

## RRIRNRPPRLPRPRPRPTKTPRP
  shrunken log2 fold change: 0.0911

## RRIRARPPRLPRPRPRPLSWPRP
  shrunken log2 fold change: 0.984

## RRIRLRPPRLPRPRPRPFGNPRP
  shrunken log2 fold change: -0.498

## RRIRLRPPRLPRPRPRPQHQPRP
  shrunken log2 fold change: -0.261

## RRIRARPPRLPRPRPRPCFCPRP
  shrunken log2 fold change: 0.25

## RRIRTRPPRLPRPRPRPIHVPRP
  shrunken log2 fold change: 0.00961

## RRIRRRPPRLPRPRPRPWAAPRP
  shrunken log2 fold change: 0.403

## RRIRHRPPRLPRPRPRPYETPRP
  shrunken log2 fold change: -0.151

## RRIRHRPPRLPRPRPRPQKQPRP
  shrunken log2 fold change: 0.219

## RRIRNRPPRLPRPRPRPPEDPRP
  shrunken log2 fold change: 0.174

## RRIRWRPPRLPRPRPRPLKIPRP
  shrunken log2 fold change: -0.195

## RRIRERPPRLPRPRPRPAFIPRP
  shrunken log2 fold change: -0.012

## RRIRFRPPRLPRPRPRPIVQPRP
  shrunken log2 fold change: 0.00873

## RRIRKRPPRLPRPRPRPRVVPRP
  shrunken log2 fold change: 0.143

## RRIRHRPPRLPRPRPRPEIGPRP
  shrunken log2 fold change: 0.103

## RRIRQRPPRLPRPRPRPHPSPRP
  shrunken log2 fold change: -0.462

## RRIRWRPPRLPRPRPRPAFHPRP
  shrunken log2 fold change: 0.153

## RRIRYRPPRLPRPRPRPGCSPRP
  shrunken log2 fold change: -0.214

## RRIRGRPPRLPRPRPRPEDMPRP
  shrunken log2 fold change: 1.02

## RRIRFRPPRLPRPRPRPNRTPRP
  shrunken log2 fold change: -0.0619

## RRIRSRPPRLPRPRPRPFMLPRP
  shrunken log2 fold change: -0.411

## RRIRHRPPRLPRPRPRPGMVPRP
  shrunken log2 fold change: 0.12

## RRIRNRPPRLPRPRPRPMYRPRP
  shrunken log2 fold change: -0.473

## RRIRNRPPRLPRPRPRPGECPRP
  shrunken log2 fold change: 0.266

## RRIRWRPPRLPRPRPRPKTFPRP
  shrunken log2 fold change: -0.0777

## RRIRIRPPRLPRPRPRPIPEPRP
  shrunken log2 fold change: -0.158

## RRIRIRPPRLPRPRPRPNTSPRP
  shrunken log2 fold change: -0.639

## RRIRVRPPRLPRPRPRPCILPRP
  shrunken log2 fold change: -0.208

## RRIRDRPPRLPRPRPRPSYSPRP
  shrunken log2 fold change: -0.581

## RRIRWRPPRLPRPRPRPETSPRP
  shrunken log2 fold change: 0.7

## RRIRCRPPRLPRPRPRPFPSPRP
  shrunken log2 fold change: 0.118

## RRIRDRPPRLPRPRPRPFDAPRP
  shrunken log2 fold change: -0.13

## RRIRPRPPRLPRPRPRPDHGPRP
  shrunken log2 fold change: -0.0198

## RRIRCRPPRLPRPRPRPAWQPRP
  shrunken log2 fold change: 0.359
